# Results: US20240270821A1, “GIP/GLP1/GCG TRI-RECEPTOR AGONISTS AND USES THEREOF” (priority 2023, published 2024)
# How the values were obtained:
# Assay in all cases: cell-based or functional assay
# hGLP-1R = hGLP-1R (Homo sapiens, UniProt P43220)
# [1] = target: human glucagon receptor (human) (UniProt P47871)
# [2] = target: T1, human GIP receptor (human) (UniProt P48546)
# T1 sequence (looked up): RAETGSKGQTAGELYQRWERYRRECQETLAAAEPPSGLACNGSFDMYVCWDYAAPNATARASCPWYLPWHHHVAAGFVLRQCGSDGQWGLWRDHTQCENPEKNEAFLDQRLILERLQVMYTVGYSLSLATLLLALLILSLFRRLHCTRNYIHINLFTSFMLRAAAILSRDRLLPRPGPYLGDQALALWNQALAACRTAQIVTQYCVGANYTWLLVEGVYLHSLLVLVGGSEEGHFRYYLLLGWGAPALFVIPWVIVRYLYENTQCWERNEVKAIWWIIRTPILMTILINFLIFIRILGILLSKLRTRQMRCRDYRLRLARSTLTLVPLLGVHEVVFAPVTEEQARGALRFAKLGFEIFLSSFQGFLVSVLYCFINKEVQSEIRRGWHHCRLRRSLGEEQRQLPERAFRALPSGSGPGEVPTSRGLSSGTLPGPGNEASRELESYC
# hGLP-1R, sequence (P43220 24-463): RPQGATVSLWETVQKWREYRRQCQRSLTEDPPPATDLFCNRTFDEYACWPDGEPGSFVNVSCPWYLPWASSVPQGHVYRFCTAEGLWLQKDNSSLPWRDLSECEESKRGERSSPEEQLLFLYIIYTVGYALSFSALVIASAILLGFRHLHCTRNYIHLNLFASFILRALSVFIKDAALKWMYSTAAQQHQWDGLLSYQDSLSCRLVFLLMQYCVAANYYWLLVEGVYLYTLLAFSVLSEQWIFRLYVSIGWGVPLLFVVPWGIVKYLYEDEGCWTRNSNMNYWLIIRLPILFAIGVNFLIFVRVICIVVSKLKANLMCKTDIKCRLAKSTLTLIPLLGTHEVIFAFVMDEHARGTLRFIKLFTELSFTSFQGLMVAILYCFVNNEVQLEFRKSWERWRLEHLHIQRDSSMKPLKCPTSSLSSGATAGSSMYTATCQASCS
# human glucagon receptor (human), sequence (P47871 26-477): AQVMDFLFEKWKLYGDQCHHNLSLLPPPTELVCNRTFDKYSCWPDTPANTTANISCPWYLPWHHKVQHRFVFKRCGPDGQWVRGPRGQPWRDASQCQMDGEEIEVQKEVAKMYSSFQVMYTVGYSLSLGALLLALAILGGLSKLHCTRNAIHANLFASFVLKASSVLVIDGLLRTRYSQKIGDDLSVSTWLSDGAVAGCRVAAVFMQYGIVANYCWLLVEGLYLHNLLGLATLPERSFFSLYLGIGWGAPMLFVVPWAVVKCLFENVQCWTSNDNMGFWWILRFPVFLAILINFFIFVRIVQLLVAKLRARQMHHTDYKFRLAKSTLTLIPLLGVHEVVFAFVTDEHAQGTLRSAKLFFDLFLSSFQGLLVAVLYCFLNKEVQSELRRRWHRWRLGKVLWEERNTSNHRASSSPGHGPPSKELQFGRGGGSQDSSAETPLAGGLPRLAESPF
Binder,Relative cAMP EC50 (hGLP-1R),cAMP Rel EC50 (1% HSA) (hGLP-1R),Relative cAMP EC50 [1],cAMP Rel EC50 (1% HSA) [1],Relative cAMP EC50 [2],cAMP Rel EC50 (1% HSA) [2],"cAMP Rel EC50, nM (in the presence of 1% HSA) (hGLP-1R)","cAMP Rel EC50, nM (in the presence of 1% HSA) [1]","cAMP Rel EC50, nM (in the presence of 1% HSA) [2]",cAMP Rel EC50 (hGLP-1R),cAMP Rel EC50 [1],cAMP Rel EC50 [2]
YXQGTFTSDXSQXLDKKAQXAFIEYLLEAGPSSXAPPPSGT (possibly C-terminal amide; synthetic construct; SITE 2: note = 2-Aminoisobutyric Acid; SITE 10: note = 3-(4-Pyridyl)-L-alanine; SITE 13: note = alpha-methyl-leucine; SITE 17: note = Lysine is chemically modified through conjugation of the epsilon-amino group of the Lysine side chain with (2-[2-(2-Amino-ethoxy)-ethoxy]-acetyl)) [Example 824],2.43 nM,343 nM,7.92 nM,1110 nM,0.123 nM,28.9 nM,–,–,–,–,–,–
YXQGTFTSDXSQXLDKKAQXAFIEYLLEAGPSSXAPPPSGT (synthetic construct; SITE 2: note = 2-Aminoisobutyric Acid; SITE 10: note = 3-(4-Pyridyl)-L-alanine; SITE 13: note = alpha-methyl-leucine; SITE 17: note = Lysine is chemically modified through conjugation of the epsilon-amino group of the Lysine side chain with (2-[2-(2-Amino-ethoxy)-ethoxy]-acetyl)) [Example 825],3.4 nM,303 nM,5.53 nM,1810 nM,0.12 nM,39.3 nM,–,–,–,–,–,–
YXQGTFTSDXSKXLDKKAQXAFIEYLIEXGPSSGAPPPSGSE (AEEA-γGlu-C18 diacid on Lys; non-natural residues; amide; synthetic construct; SITE 2: note = 2-Aminoisobutyric Acid; SITE 10: note = 3-(4-Pyridyl)-L-alanine; SITE 13: note = alpha-methyl-leucine; SITE 17: note = Lysine is chemically modified through conjugation of the epsilon-amino group of the Lysine side chain with (2-[2-(2-Amino-ethoxy)-ethoxy]-acetyl)) [Example 901],1.26 nM,193 nM,9.09 nM,1150 nM,0.17 nM,34 nM,–,–,–,–,–,–
YXQGTFTSDFSRXLDKKAQXAFIEYLLAGGPSSGAPPPSGS (synthetic construct; SITE 2: note = 2-Aminoisobutyric Acid; SITE 13: note = alpha-methyl-leucine; SITE 17: note = Lysine is chemically modified through conjugation of the epsilon-amino group of the Lysine side chain with (2-[2-(2-Amino-ethoxy)-ethoxy]-acetyl)-(gamma-Glu)-CO-(CH2) 18-CO2H; SITE 20: n) [Example 77],1.85 nM,–,15.3 nM,–,0.168 nM,–,339 nM,2610 nM,37.9 nM,–,–,–
YXQGTFTSDXSQXLDKKAQXAFIEYLIAGGPSSGAPPPSGE (synthetic construct; SITE 2: note = 2-Aminoisobutyric Acid; SITE 10: note = 3-(4-Pyridyl)-L-alanine; SITE 13: note = alpha-methyl-leucine; SITE 17: note = Lysine is chemically modified through conjugation of the epsilon-amino group of the Lysine side chain with (gamma-Glu)2-CO-(CH2)16-CO2H; SITE 20:) [Example 883 (SEQ ID NO: 889)],–,–,–,–,–,–,–,–,–,120 nM,578 nM,9.41 nM
YXQGTFTSDXSQXLDKKAQXAFIEYLLEAGPSSGAPPPSGS (synthetic construct; SITE 2: note = 2-Aminoisobutyric Acid; SITE 10: note = 3-(4-Pyridyl)-L-alanine; SITE 13: note = alpha-methyl-leucine; SITE 17: note = Lysine is chemically modified through conjugation of the epsilon-amino group of the Lysine side chain with (2-[2-(2-Amino-ethoxy)-ethoxy]-acetyl)) [Example 820],2.78 nM,299 nM,6.83 nM,1270 nM,0.121 nM,17.5 nM,–,–,–,–,–,–
YXQGTFTSDFSQXLDKKAQXAFIEYLIEXGPSSGAPPPSGS (not fully specified; synthetic construct; SITE 2: note = 2-Aminoisobutyric Acid; SITE 13: note = alpha-methyl-leucine; SITE 17: note = Lysine is chemically modified through conjugation of the epsilon-amino group of the Lysine side chain with (gamma-Glu)3-CO-(CH2)16-CO2H; SITE 20: note = 3-(4-Pyridyl)-L-alanine; SITE 29:) [Example 862 (SEQ ID NO: 868)],–,–,–,–,–,–,–,–,–,201 nM,1110 nM,12.4 nM
YXQGTFTSDXSQXLDKKAQXAFIEYLLEAGPSSGAPPPSGT (synthetic construct; SITE 2: note = 2-Aminoisobutyric Acid; SITE 10: note = 3-(4-Pyridyl)-L-alanine; SITE 13: note = alpha-methyl-leucine; SITE 17: note = Lysine is chemically modified through conjugation of the epsilon-amino group of the Lysine side chain with (2-[2-(2-Amino-ethoxy)-ethoxy]-acetyl)) [Example 823],2.96 nM,421 nM,7.75 nM,1410 nM,0.171 nM,25.6 nM,–,–,–,–,–,–
YXQGTFTSDXSQXLDKKAQXAFIEYLLEAGPSSGAPPPSGX (synthetic construct; SITE 2: note = 2-Aminoisobutyric Acid; SITE 10: note = 3-(4-Pyridyl)-L-alanine; SITE 13: note = alpha-methyl-leucine; SITE 17: note = Lysine is chemically modified through conjugation of the epsilon-amino group of the Lysine side chain with (2-[2-(2-Amino-ethoxy)-ethoxy]-acetyl)) [Example 822],2.51 nM,322 nM,11.6 nM,2100 nM,0.186 nM,18.1 nM,–,–,–,–,–,–
YXQGTFTSDFSQXLDKKAQXAFIEYLIAGGPSSGAPPPSGS (synthetic construct; SITE 2: note = 2-Aminoisobutyric Acid; SITE 13: note = alpha-methyl-leucine; SITE 17: note = Lysine is chemically modified through conjugation of the epsilon-amino group of the Lysine side chain with (2-[2-(2-Amino-ethoxy)-ethoxy]-acetyl)-(gamma-Glu)-CO-(CH2) 16-CO2H; SITE 20: n) [Example 875 (SEQ ID NO: 881)],–,–,–,–,–,–,–,–,–,78.6 nM,689 nM,13.8 nM
YXQGTFTSDFSQXLDKKAQXAFIEYLIAGGPSSGAPPPSGS (not fully specified; synthetic construct; SITE 2: note = 2-Aminoisobutyric Acid; SITE 13: note = alpha-methyl-leucine; SITE 17: note = Lysine is chemically modified through conjugation of the epsilon-amino group of the Lysine side chain with (gamma-Glu)2-CO-(CH2)16-CO2H; SITE 20: note = 3-(4-Pyridyl)-L-alanine; SITE 41:) [Example 876 (SEQ ID NO: 882)],–,–,–,–,–,–,–,–,–,70 nM,940 nM,7.94 nM
"YXQGTFTSDXSQXLDKKAQXAFIEYLIEXGPSSGAPPPSGSGE (not fully specified; C-terminus uncertain, likely amide; synthetic construct; SITE 2: note = 2-Aminoisobutyric Acid; SITE 10: note = 3-(4-Pyridyl)-L-alanine; SITE 13: note = alpha-methyl-leucine; SITE 17: note = Lysine is chemically modified through conjugation of the epsilon-amino group of the Lysine side chain with (gamma-Glu)2-CO-(CH2)16-CO2H; SITE 20:) [Example 891 (SEQ ID NO: 897)]",–,–,–,–,–,–,–,–,–,330 nM,581 nM,16 nM
YXQGTFTSDXSQXLDKKAQXAFIEYLIEXGPSSGAPPPSGSGE (not fully specified; synthetic construct; SITE 2: note = 2-Aminoisobutyric Acid; SITE 10: note = 3-(4-Pyridyl)-L-alanine; SITE 13: note = alpha-methyl-leucine; SITE 17: note = Lysine is chemically modified through conjugation of the epsilon-amino group of the Lysine side chain with (gamma-Glu)2-CO-(CH2)16-CO2H; SITE 20:) [Example 893 (SEQ ID NO: 899)],–,–,–,–,–,–,–,–,–,305 nM,508 nM,21.4 nM
